According to patent US20180258175A1 (ABLEXIS, published 2018):
Numbering of substitutions follows the chain as printed.

B1: CCK-410A (antibody, V domains shown)
VH: EVQLVESGGGLVQPGRSLRLSCTASGFTFGDYAMSWFRQAPGKGLEWVGFIRSKAYGGTTEYAASVKGRFTISRDDTKSIAYLQMNSLKIEDTAVHYCTREGSFGALDIWGQGIMVTVSS
VL: not shown
notes: AlivaMab chimeric IgG, human kappa LC
B2: CCL-223A (antibody, V domains shown)
VH: QVQLQESGPGLVKPSETLSLTCTVSGGSISSYYWSWIRQPAGKGLEWIGRIYTSGSTNYNPSLKSRVSMSVDTSKNQFSLKLSSVTAADTAVYYCARERIIWFDPWGQGTLVTVSS
VL: not shown
notes: AlivaMab chimeric IgG, human lambda LC
B3: CCK-408A (antibody, V domains shown)
VH: B2 VH with N60H, L63F, S68T, N76T, V85L, E98G, R99G, I101T
VL: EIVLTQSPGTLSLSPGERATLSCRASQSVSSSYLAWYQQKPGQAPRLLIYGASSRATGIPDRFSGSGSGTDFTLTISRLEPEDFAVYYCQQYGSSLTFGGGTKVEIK
notes: as for B1
B4: CCL-207A (antibody, V domains shown)
VH: B2 VH with S56T, S68T, S83N, I100V
VL: not shown
notes: as for B2
B5: CCL-220A (antibody, V domains shown)
VH: B2 VH with W47G, S68T, I100L, I101Y, W102G, F103M, P105V, L111T
VL: not shown
notes: as for B2
B6: CCL-311A (antibody, V domains shown)
VH: EVQLVQSGAEVKKPGESLKISCKGSGYSFTNYWIGWVRQMPGKGLEWMGIIYPGDSDTRYSPSFQGQVTISADISITTAYLQWSSLKASDTAMYYCARHRLGFFDYWGQGTLVTVSS
VL: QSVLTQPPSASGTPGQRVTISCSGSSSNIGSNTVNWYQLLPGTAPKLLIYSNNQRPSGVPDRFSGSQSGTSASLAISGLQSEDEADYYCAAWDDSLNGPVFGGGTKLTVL
notes: as for B2
B7: CCL-314A (antibody, V domains shown)
VH: QVQLQESGPGLVKPSETLSLTCTVSGGSISSYYWSWIRQPAGKGLEWIGRIYASGGTNYNPSLKSRVTMSVDTSKNQFSLKVSSVIAADTAIYYCARNRLGIYDYWGQGSLVTVSS
VL: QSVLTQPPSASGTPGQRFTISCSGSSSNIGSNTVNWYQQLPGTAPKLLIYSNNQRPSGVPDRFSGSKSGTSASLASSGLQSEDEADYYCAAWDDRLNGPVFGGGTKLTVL
notes: as for B2
B8: CCL-315A (antibody, V domains shown)
VH: QVQLQESGPGLVKPSETLSLTCTVSGGSISSYYWSWIRQSPGKGLEWIGYIYYSGSTNYNPSLKSRVTISVDTSKNQFSLKLSSVTAADTAVYFCARALLTGGFAYWGQGTLVTVSS
VL: not shown
notes: as for B2
B9: CCL-203A (antibody, V domains shown)
VH: B8 VH with S35N, S40P, V71L, F94H, A98G, L99R, T101N, G103A, A105D
VL: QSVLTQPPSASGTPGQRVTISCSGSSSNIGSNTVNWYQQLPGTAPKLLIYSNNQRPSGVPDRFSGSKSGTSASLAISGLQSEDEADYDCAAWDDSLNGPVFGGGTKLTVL
notes: as for B2
B10: CCL-338A (antibody, V domains shown)
VH: B8 VH with S40P, S56T, F94Y, L100I, T101V, G103A
VL: SYELTQPHSVSVATAQMARITCGGNNIGSKAVHWYQQKPGQDPVLVIYSDSNRPSGIPERFSGSNPGNTATLTISRIEAGDEADYYCQVWDSSSDHRVFGGGTKLTVL
notes: as for B2
B11: CCK-501A (antibody, V domains shown)
VH: EVQLVESGGGLVKPGGSLRLSCAASGFTFSNAWMNWVRQAPGKGLEWVGRINSKTDGGTTDYAAPVKGRFTISRDDSKTTLYLQMNSLKTEDTAVYYCTTDGVYPDVFDIWGQGTMVTVSS
VL: not shown
notes: as for B1
B12: CCL-333A (antibody, V domains shown)
VH: EVQLVESGGGLVKPGGSLRLSCAASGFTFSYYSMNWVRQAPGKGLEWVSSISDSSDYIYYADSVKGRFTISRDNAKNSLYLQMNSLRAEDTAVYYCARGGLRFDYWGQGTLVTVSS
VL: not shown
notes: as for B2
B13: CCL-226A (antibody, V domains shown)
VH: QVQLQESGPGLVKPSETLSLTCTVSGASISSYYWSWIRQPPGKGLEWIGYFYYSGSTNYSPSLKSRVTFSVDTSKNQFSLKLSSVTAADTAVYFCARGKVGVPFDYWGQGTLVTVSS
VL: not shown
notes: as for B2
B14: CCL-324A (antibody, V domains shown)
VH: QVQLQESGPGLVKPSETLSLTCTVSGGSISSYYWSWIRQPPGKGLEWIGYVYYSGSTNYNPSLKSRVTTSVDTSKNQFSLKLRSVTAADTAVYYCARDRLGIAFDIWGQGTMVTVSS
VL: SSELTQDPAVSVALGQTVRITCQGDSLRSYYASWYQQKPGQAPILVIYGKNNRPSGIPDRFSGSSSGNTASLTITGAQAEDEADYYCNSQDNSGNHLVVFGRGTKLTVL
notes: as for B2
B15: CCL-349A (antibody, V domains shown)
VH: B14 VH with S31I, S35N, V51I, S54I, T69I, R83S, D98G, G101T, I102Y
VL: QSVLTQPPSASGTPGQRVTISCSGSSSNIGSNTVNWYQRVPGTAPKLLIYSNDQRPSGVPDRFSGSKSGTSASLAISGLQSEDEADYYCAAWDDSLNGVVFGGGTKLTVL
notes: as for B2
B16: CCL-201A (antibody, V domains shown)
VH: B14 VH with S35I, V51F, T69I, D72G, R83S, D98S, I102S, A103I, I106Y, M112L
VL: not shown
notes: as for B2
B17: CCL-235A (antibody, V domains shown)
VH: QVQLQESGPGLVKPSETLSLTCTVSGGSISSYYWSWIWQPAGKGLEWIGRIYTSGSTNYNPSLKSRVTMSVDTPKNQFSLKLSSVTAADTAVYYCARERLTGAFDIWGQGTMVTVSS
VL: not shown
notes: as for B2
B18: CCL-322A (antibody, V domains shown)
VH: QVQLQESGPGLVKPSETLSLTCTVSGGSISSYYWSWIRQPAGKGLEWIGRIYTSGSIKYNPSLKSRVAMSVDTSKNQFSLKLSSVTAADTAVYYCAREGILGYFDYWGQGTLVTVSS
VL: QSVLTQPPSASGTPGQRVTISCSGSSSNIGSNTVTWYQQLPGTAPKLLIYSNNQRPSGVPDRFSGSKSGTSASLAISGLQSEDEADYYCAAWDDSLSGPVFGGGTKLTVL
notes: as for B2
B19: CCL-253A (antibody, V domains shown)
VH: B17 VH with W38R, P74S, V85M, E98D, T101G, G102R
VL: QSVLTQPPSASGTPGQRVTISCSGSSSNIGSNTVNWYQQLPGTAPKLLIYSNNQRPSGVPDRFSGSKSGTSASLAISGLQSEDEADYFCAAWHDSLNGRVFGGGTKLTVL
notes: as for B2
B20: CCL-341A (antibody, V domains shown)
VH: B17 VH with W38R, P74S, T101G, G102M, A103F, I106Y, M112L
VL: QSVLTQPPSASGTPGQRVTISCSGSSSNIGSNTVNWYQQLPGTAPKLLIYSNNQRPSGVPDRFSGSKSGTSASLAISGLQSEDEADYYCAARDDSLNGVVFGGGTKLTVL
notes: as for B2
B21: CCL-303A (antibody, V domains shown)
VH: B14 VH with V51I, T69I, R83S, Y93F, D98I, R99T, L100V, G101T, I102S
VL: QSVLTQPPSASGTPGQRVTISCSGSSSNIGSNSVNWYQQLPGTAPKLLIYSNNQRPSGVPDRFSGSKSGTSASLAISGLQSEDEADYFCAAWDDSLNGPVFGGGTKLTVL
notes: as for B2
B22: CCL-320A (antibody, V domains shown)
VH: B18 VH with G26V, T53A, I57T, K58N, A68T, S83T, G99R, I100V, L101G, G102I
VL: not shown
notes: as for B2
B23: CCL-301A (antibody, V domains shown)
VH: B18 VH with S56Y, I57T, K58N, A68S, G99R, I100L, L101G, G102A, Y103F
VL: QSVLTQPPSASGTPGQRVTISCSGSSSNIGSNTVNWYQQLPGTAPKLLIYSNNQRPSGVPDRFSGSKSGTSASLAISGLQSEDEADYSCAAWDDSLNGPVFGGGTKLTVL
notes: as for B2
B24: CCL-339A (antibody, V domains shown)
VH: B18 VH with Y32N, I57T, A68T, L101V, Y103A, D105H, T111A
VL: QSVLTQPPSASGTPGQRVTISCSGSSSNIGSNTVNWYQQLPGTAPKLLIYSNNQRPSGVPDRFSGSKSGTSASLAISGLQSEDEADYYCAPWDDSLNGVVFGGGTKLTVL
notes: as for B2
B25: CCL-344A (antibody, V domains shown)
VH: B17 VH with W38R, P74S, T101G, G102M, A103F, I106Y, M112L
VL: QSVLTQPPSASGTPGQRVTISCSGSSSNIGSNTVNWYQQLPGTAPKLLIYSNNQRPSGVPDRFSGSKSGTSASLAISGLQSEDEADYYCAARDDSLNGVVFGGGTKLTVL
notes: as for B2
B26: CCK-434A (antibody, V domains shown)
VH: EVQLVESGGGLVQPGGSLRLSCAASGFTFSSYDMHWVRQATGKGLEWVSAIGTAGDTYYPGSVKGRFTISRENAKNSLYLQMNSLRAGDTAVYYCARGHIVVVTAMDYWGQGTLVTVSS
VL: not shown
notes: as for B1

Molecular target: T1, human CD115 extracellular domain (Sino Biological 10161-H08H) (human, UniProt P07333 20-517)
T1 construct: extracellular domain; bought recombinant protein; also called huCD115; hu-CD115
Experiment: ELISA, supernatant on huCD115

Binding result, binds:
B1
B2
B3
B4
B5
B6
B7
B8
B9
B10
B11
B12
B13
B14
B15
B16
B17
B18
B19
B20
B21
B22
B23
B24
B25
B26
